According to article PMC5834530:
pKd: −log10 of the molar value.

Legend:
[1] = molecular target: MGG_01005 (Magnaporthe oryzae dynein light chain Tctex-type 1, dynlt1/3), wild type, recombinant (Magnaporthe oryzae) (UniProt G4NCW2); assay: ITC
[2] = molecular target: MGG_01005 (Magnaporthe oryzae dynein light chain Tctex-type 1, dynlt1/3), wild type, recombinant (Magnaporthe oryzae) (UniProt G4NCW2); assay: SEC; gel filtration chromatography of MGG_01005 (Supplementary Figure S3)
[3] = molecular target: MGG_01005 (Magnaporthe oryzae dynein light chain Tctex-type 1, dynlt1/3), wild type, recombinant (Magnaporthe oryzae) (UniProt G4NCW2); assay: AUC
[4] = molecular target: MGG_01005 (Magnaporthe oryzae dynein light chain Tctex-type 1, dynlt1/3), wild type, recombinant (Magnaporthe oryzae) (UniProt G4NCW2); assay: ITC; remark: listed apart in the source

MoDyn1I2^122–141 peptide
pKd [1]: 4.82 | dH [1]: -3.28 kcal/mol | stoichiometry N [1]: 1.13

MGG_01005 (Magnaporthe oryzae dynein light chain Tctex-type 1, dynlt1/3), wild type, recombinant (from UniProt G4NCW2 1-153) (natural protein)
stoichiometry N [2]: 2 | stoichiometry N [3]: 2

MoDyn1I2^117–150 peptide
stoichiometry N [4]: 0.4 to 0.7 | pKd [1]: 5.27 | stoichiometry N [1]: 0.55
